Paper PMC5647336

Biological target: Hp-chimMotB (soluble chimeric variant of Helicobacter pylori MotB with the transmembrane helix replaced by a GCN4-derived leucine zipper) (S. cerevisiae | Helicobacter pylori) (UniProt P03069)
Test: SAXS; Hp-chimMotB at 0.05, 0.11 and 0.25 mg/mL in 100 mM sodium acetate pH 4.6, 200 mM NaCl, room temperature; MW from I(0) (Guinier, P(r)) and Porod volume compared with the theoretical dimer mass

“Hp-chimMotB (soluble chimeric variant of Helicobacter pylori MotB with the transmembrane helix replaced by a GCN4-derived leucine zipper) (from UniProt P03069 249-279; P56427 41-257)” was tested, and the stoichiometry N was 2.
